Measured values: US10005846 (LIFEARC, dated 2018)

Assays:
rat TG2 = biological target: T1, rat TG2 (rat, UniProt Q9WVJ6 1-686, limits assumed); assay: western blot and ELISA
T1 sequence: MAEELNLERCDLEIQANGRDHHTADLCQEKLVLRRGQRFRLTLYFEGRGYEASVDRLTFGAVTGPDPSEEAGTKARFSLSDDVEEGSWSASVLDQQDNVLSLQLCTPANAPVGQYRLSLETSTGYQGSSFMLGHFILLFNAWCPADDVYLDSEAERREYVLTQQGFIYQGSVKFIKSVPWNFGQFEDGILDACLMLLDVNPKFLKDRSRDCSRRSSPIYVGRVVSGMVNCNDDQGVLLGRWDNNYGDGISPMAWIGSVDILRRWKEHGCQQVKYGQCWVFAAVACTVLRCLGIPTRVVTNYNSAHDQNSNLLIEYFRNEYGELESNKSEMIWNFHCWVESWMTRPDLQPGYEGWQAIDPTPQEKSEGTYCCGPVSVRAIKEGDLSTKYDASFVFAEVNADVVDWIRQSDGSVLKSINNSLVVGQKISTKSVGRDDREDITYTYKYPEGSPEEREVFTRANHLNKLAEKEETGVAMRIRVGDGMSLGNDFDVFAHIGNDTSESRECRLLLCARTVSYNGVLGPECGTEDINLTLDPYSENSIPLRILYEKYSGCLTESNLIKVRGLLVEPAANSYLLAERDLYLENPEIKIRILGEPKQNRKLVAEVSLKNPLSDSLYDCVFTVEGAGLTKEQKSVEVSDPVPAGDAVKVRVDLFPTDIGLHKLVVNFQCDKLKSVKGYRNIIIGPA

[1] = biological target: T2, human transglutaminase type 2 (TG2) (human, UniProt P21980 1-687); assay: cell-based or functional assay
T2 sequence: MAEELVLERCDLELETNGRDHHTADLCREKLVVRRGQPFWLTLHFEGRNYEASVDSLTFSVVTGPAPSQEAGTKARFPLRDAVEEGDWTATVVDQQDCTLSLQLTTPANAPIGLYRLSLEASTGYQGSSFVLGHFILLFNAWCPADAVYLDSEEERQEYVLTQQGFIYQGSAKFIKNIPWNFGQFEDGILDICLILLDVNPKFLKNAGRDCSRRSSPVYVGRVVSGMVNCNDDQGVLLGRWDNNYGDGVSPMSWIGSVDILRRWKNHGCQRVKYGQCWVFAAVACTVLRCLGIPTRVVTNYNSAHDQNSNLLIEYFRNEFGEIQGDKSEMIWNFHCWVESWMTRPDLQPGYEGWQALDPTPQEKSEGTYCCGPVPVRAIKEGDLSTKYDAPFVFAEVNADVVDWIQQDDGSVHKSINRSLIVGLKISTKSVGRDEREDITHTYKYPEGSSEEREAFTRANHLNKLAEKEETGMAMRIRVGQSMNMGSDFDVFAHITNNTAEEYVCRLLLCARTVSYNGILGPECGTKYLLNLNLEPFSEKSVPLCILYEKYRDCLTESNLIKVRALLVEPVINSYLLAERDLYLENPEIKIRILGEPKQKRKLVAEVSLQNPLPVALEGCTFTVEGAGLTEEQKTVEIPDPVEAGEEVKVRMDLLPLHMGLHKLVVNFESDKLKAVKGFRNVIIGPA

[2] = biological target: T2, human transglutaminase type 2 (TG2); assay: ELISA on immobilised human TG2; r2 0.998; EC50 95% confidence range 0.1860 to 0.2368 [panel A]
Procedure: Antibody binding to human and cynomolgus monkey TG2 was determined in an ELISA assay. Clear polystyrene "Maxisorp" 96-well plates (Nunc) were coated with 50 ng purified human or cynomogulus monkey TG2 in 50 µl 0.05 M carbonate-bicarbonate buffer pH 9.6 at 4° C. overnight. Control wells were coated with 50 µl 100 µg/ml bovine serum albumin (BSA). Plates were washed 3× with 300 µl phosphate-buffered saline pH7.4 (PBS) containing 0.1% Tween 20 (PBST) and blocked with 300 µl 3% w/v Marvel skimmed milk in PBS for 1 hour at room temperature. After 3× wash with PBST, 50 µl protein-A purified chimeric or humanised anti-TG2 antibodies or human IgG1 kappa […] control antibody or CUB7402 (Abcam) were serially diluted 4-fold from a top concentration of 50 nM in PBS, and added to the plate in duplicate. […] After 3× washes with PBST, the plates were developed with 50 µl TMB substrate (Sigma) for 5 min at room temperature before stopping the reaction with 25 µl 0.5M H2SO4 and reading absorbance at 450 nm in a microtiter plate reader (BioTek EL808). Dose response curves were analysed and EC50 values and other statistical parameters determined using a 4-parameter logistical fit of the data (GraphPad Prism).

Binder	binding result (rat TG2)	also measured
JE12 murine monoclonal antibody (antibody, V domains shown, Mouse hybridoma IgG; heavy chain amplified with primer MHCG1, kappa light chain) VH: EVQLQQSGPELVKPGASVKMSCKASGYRFTSYVMHWVKQKSGQGLEWIGYINPYNDGAKYNEKFKGKATLTSDKSSSTAYMELSSLTSEDSAVYYCARLSSDYWGQGTTLTVSS VL: DVLMTQNPLSLPVSLGDQASISCRSSQSIEHINGNTYLEWYLQKPGQSPKFLIYKVSNRFSGVPDRFSGSGSGTDFTLRISRVEAEDLGIYYCFQGSHVPFTFGGGTKLEIK	binds	
DC1 murine monoclonal antibody (antibody, V domains shown, Mouse hybridoma IgG; heavy chain amplified with primer MHCG1, kappa light chain; also called mDC001) VH: EVQLVESGGGLVKPGGSLKLSCAASGFTLSTHAMSWVRQTPEKRLEWVATISSGGRSTYYPDSVKGRFTISRDNVKNTLYLQLSSLRSEDTAVYFCARLISTYWGQGTTLTVSS VL: DITMTQSPSSIYASLGERVTITCKASQDINSYLTWFQQKPGKSPKILIYLVNRLVDGVPSRFSGSGSGQDYALTISSLEYEDMGIYYCLQYDDFPYTFGGGTKLEIK	binds	
cBB001 chimeric antibody (murine BB7 variable regions) (antibody, human IgG1, V domains shown, also called chimeric BB7) VH: AVQLVESGGGLVKPGGSLKLSCAASGIIFSSSAMSWVRQTPEKRLEWVATISSGGRSTYYPDSVKGRFTVSRDSAKNTLYLQMDSLRSEDTAIYYCAKLISPYWGQGTTLTVSS VL: AIKMTQSPSSMYASLGERVIITCKASQDINSYLTWFQQKPGKSPKTLIYLTNRLMDGVPSRFSGSGSGQEFLLTISGLEHEDMGIYYCLQYVDFPYTFGGGTKLEIK		IC50 of enzymatic inhibition, dansylated lysine incorporation into N,N-dimethylated casein [panel B] [1]: 0.925 nM
cDD9001 chimeric antibody (murine DD9 variable regions) (antibody, human IgG1, V domains shown) VH: not shown VL: QIVLTQSPAIMSASPGEKVTMTCSASSSVDYMYWYQQKPGSSPRLLIYDTSNLASGVPVRFSGSGSGTSYSLTISRMGAEDAATYYCQQWNSSPLTFGAGTKLELK		EC50 [2]: 0.21 nM
